Residue numbers refer to the chain shown, from its start. One block for each binder: values may come before it. Positions of bridges follow the written chain, without caps; N, C: chain ends. No end group written: not given here.
Molecular target: amylin receptor (rat basal forebrain membranes containing the nucleus accumbens and surrounding regions) (rat)
Experiment: competition with 125I-Bolton-Hunter rat amylin on rat basal forebrain membranes, filtration

IC50: 85 pM
Binder: CNTATCATQRLANFLVHSSNNFGPILPSTNVGSNTY (peptide, from a related filing) [des-1Lys25,28Pro-h-Amylin]

IC50: 82 pM
B2: des-1Lys18Arg25,28Pro-h-Amylin (peptide)
peptide: CNTATCATQRLANFLVRSSNNFGPILPSTNVGSNTY
modifications: 2,7-disulfide; made on methylbenzhydrylamine resin (C-terminal amide not printed in so many words)

IC50: 14 pM
B3: des-1Lys25,28,29Pro-h-Amylin (peptide)
peptide: B2 peptide with R17H, S28P
modifications: 2,7-disulfide; made on methylbenzhydrylamine resin (C-terminal amide not printed in so many words)

The remaining lines, values behind:

B1: des-1Lys18Arg25,28,29Pro-h-Amylin (peptide)
peptide: B2 peptide with S28P
modifications: 2,7-disulfide; made on methylbenzhydrylamine resin (C-terminal amide not printed in so many words)
IC50: 21 pM

Binder: KCNTATCATQRLANFLVHSSNNFGPILPSTNVGSNTY (peptide, from a related filing) [25,28Pro-h-Amylin]
IC50: 26 pM

B4: 25Pro26Val28,29Pro-h-Amylin (peptide)
peptide: KCNTATCATQRLANFLVHSSNNFGPVLPPTNVGSNTY
modifications: 2,7-disulfide; made on methylbenzhydrylamine resin (C-terminal amide not printed in so many words)
IC50: 18 pM

Binder: KDNTATKATQRLANFLVHSSNNFGAILSSTNVGSNTY (peptide, from a related filing, lactam 2-7; ends not checked) [2,7Cyclo-[2Asp,7Lys]-h-Amylin]
IC50: 310 pM

B5: 18Arg25,28Pro-h-Amylin (peptide)
peptide: B4 peptide with H18R, V26I, P29S
modifications: 2,7-disulfide; made on methylbenzhydrylamine resin (C-terminal amide not printed in so many words)
IC50: 32 pM

B6: 18Arg25,28,29Pro-h-Amylin (peptide)
peptide: B4 peptide with H18R, V26I
modifications: 2,7-disulfide; made on methylbenzhydrylamine resin (C-terminal amide not printed in so many words)
IC50: 21 pM
